Test results taken from article PMC7086702.

Target: Groundnut bud necrosis virus nucleocapsid (N) protein, full-length, hexa-histidine-tagged (Groundnut bud necrosis virus, strain GBNV-To(K))
Experiment: SEC

Substance: Groundnut bud necrosis virus nucleocapsid (N) protein, full-length, hexa-histidine-tagged (natural protein)
- stoichiometry N: 4
